The record followed here is publication doi:10.1101/2023.02.23.529712.

No end group written: not given here.

This assay has as its target recombinant rat arrestin-2 (rat), P29066. In words: MST + fluorescence polarisation. Background: Fluorescence polarisation rises when a labelled molecule tumbles more slowly, as on binding a larger partner.

As usually defined, the Kd is the equilibrium constant for the complex coming apart.

Chain of recombinant rat arrestin-2 (rat), P29066 (P29066 whole entry): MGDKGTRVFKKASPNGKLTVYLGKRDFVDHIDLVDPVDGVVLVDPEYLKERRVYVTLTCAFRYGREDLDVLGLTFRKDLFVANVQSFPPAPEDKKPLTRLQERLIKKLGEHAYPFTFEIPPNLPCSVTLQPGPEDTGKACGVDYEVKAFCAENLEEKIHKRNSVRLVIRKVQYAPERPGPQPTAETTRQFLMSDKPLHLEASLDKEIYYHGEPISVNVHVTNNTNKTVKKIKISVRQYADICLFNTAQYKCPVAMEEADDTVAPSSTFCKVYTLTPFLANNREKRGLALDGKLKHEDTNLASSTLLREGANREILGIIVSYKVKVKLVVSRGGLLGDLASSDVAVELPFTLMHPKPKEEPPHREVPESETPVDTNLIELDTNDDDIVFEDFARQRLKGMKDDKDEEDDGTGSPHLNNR

GFEPFSQRKLEELKDESSRAWTEEEINE (domain or fragment, not fully specified) [phosphomimetic GHSR C-terminus, Q92847 339-366]: the Kd came out at 200 µM.
